± gives the uncertainty stated by the source.
B1: Gamma-crystallin S, residues 96 to 176; numbered along this chain, P22914 (parent)
chain: IQIFEKGDFSGQMYETTEDCPSIMEQFHMREIHSCKVLEGVWIFYELPNYRGRQYLLDKKEYRKPIDWGAASPAVQSFRRI

Variants of: B1
Assay: abundance fitness (aPCA) (normalised: wild type 0, dead -1); higher = more abundant; growth selection in yeast, the domain comes from the species named
Conditions: Homo sapiens

Abundance fitness: each site, then its substitutions
F44: Q -0.602 ± 0.097; S -0.272 ± 0.055; Y -0.104 ± 0.12; M 0.064 ± 0.055; I -0.215 ± 0.25; N -0.868 ± 0.44; C 0.035 ± 0.068; G 0.015 ± 0.04; P -1.11 ± 0.45; K -0.929 ± 0.22; R -1.02 ± 0.086; W -0.141 ± 0.075; L 0.005 ± 0.052; T -0.195 ± 0.069; E -0.951 ± 0.18; H -0.441 ± 0.075; A -0.007 ± 0.05; V 0.009 ± 0.053
Q54: Y -0.144 ± 0.096; L -0.121 ± 0.049; N 0.089 ± 0.089; S 0.017 ± 0.059; R -0.013 ± 0.039; I -0.045 ± 0.14; G -0.048 ± 0.053; T 0.044 ± 0.068; E -0.067 ± 0.092; F -0.114 ± 0.087; P -0.168 ± 0.08; V -0.045 ± 0.039; C -0.001 ± 0.1; K -0.07 ± 0.086; H 0.035 ± 0.13; W -0.279 ± 0.064
E46: L -0.279 ± 0.052; F -0.584 ± 0.14; W -0.875 ± 0.11; V -0.386 ± 0.059; G -0.094 ± 0.051; D -0.476 ± 0.26; S -0.101 ± 0.054; I -0.777 ± 0.25; R -0.137 ± 0.053; A -0.016 ± 0.082; P -0.16 ± 0.082; C -0.008 ± 0.19; T -0.13 ± 0.096; N -0.275 ± 0.16; Q 0.034 ± 0.1; H -0.047 ± 0.21; M -0.21 ± 0.091
I43: R 0.016 ± 0.048; V -0.013 ± 0.049; N 0.007 ± 0.14; K -0.123 ± 0.1; G 0.028 ± 0.042; M 0.074 ± 0.12; E 0.117 ± 0.063; H -0.162 ± 0.36; Y 0.047 ± 0.12; P -1.1 ± 0.2; Q 0.056 ± 0.13; S 0.015 ± 0.053; W -0.032 ± 0.07; F 0.008 ± 0.089
R53: Q 0.073 ± 0.065; W -0.257 ± 0.075; H -0.036 ± 0.1; V -0.018 ± 0.038; D 0.048 ± 0.082; S -0.084 ± 0.057; F -0.055 ± 0.072; C -0.064 ± 0.082; K 0.005 ± 0.076; E 0.036 ± 0.06; L -0.059 ± 0.04; A -0.039 ± 0.045; P -0.169 ± 0.069; Y -0.129 ± 0.093; I -0.163 ± 0.1; T -0.018 ± 0.073; G -0.039 ± 0.03; N -0.168 ± 0.12
Y45: I -1.1 ± 0.45; A -0.397 ± 0.076; F -0.04 ± 0.11; R -0.841 ± 0.087; K -0.712 ± 0.24; D -1.03 ± 0.39; Q -0.888 ± 0.17; G -0.669 ± 0.082; E -0.794 ± 0.14; V -1.07 ± 0.16; H -0.123 ± 0.12; T -0.304 ± 0.14; N -0.123 ± 0.16; W -0.065 ± 0.092; C -0.273 ± 0.1; L -0.651 ± 0.098
E39: S 0.035 ± 0.056; K 0 ± 0.069; C -0.039 ± 0.081; T -0.012 ± 0.052; A 0.059 ± 0.046; Y -0.045 ± 0.092; D -0.028 ± 0.12; M -0.014 ± 0.057; W -0.06 ± 0.035; N 0.079 ± 0.13; Q -0.03 ± 0.081; H -0.1 ± 0.12; V 0.061 ± 0.052; P -0.227 ± 0.078; F -0.025 ± 0.13; R 0.054 ± 0.037
W42: G -1.02 ± 0.092; D -1.06 ± 0.32; P -1.04 ± 0.28; T -0.709 ± 0.13; R -0.986 ± 0.093; H -0.461 ± 0.14; K -0.787 ± 0.19; E -0.363 ± 0.13; Y 0.046 ± 0.073; L -0.241 ± 0.064; M -0.231 ± 0.096; C -0.156 ± 0.073; Q -0.906 ± 0.24; S -0.901 ± 0.091; A -0.157 ± 0.056; F -0.051 ± 0.11; V -0.042 ± 0.046; N -0.445 ± 0.13
G52: A -0.741 ± 0.069; R -0.766 ± 0.084; S -0.457 ± 0.068; K -0.438 ± 0.12; L -0.805 ± 0.089; V -1.05 ± 0.12; E -0.949 ± 0.2; T -0.95 ± 0.19; D -0.788 ± 0.12; P -0.89 ± 0.24; Y -0.95 ± 0.37; C -0.631 ± 0.17; W -1.01 ± 0.17; Q -1 ± 0.13; M -0.912 ± 0.13; F -0.246 ± 0.36
K36: E -0.021 ± 0.055; D -0.019 ± 0.083; H -0.013 ± 0.086; Y 0.068 ± 0.092; M 0.024 ± 0.075; C -0.078 ± 0.064; R 0.022 ± 0.035; G -0.171 ± 0.037; P -1.19 ± 0.21; I -0.045 ± 0.11; T -0.019 ± 0.057; W 0.15 ± 0.052; Q -0.002 ± 0.07; A 0.017 ± 0.045; S 0.015 ± 0.048; F 0.1 ± 0.073; N -0.037 ± 0.12
L47: W -0.078 ± 0.049; K 0 ± 0.099; D -0.093 ± 0.18; Q -0.113 ± 0.12; A -0.047 ± 0.068; I -0.436 ± 0.11; M 0.07 ± 0.094; R 0.011 ± 0.042; V -0.667 ± 0.071; C -0.022 ± 0.11; G -0.051 ± 0.037; Y 0.019 ± 0.15; E -0.004 ± 0.062; N -0.203 ± 0.22; T -0.285 ± 0.1; F 0.046 ± 0.083; S -0.056 ± 0.073; H 0.065 ± 0.11; P -0.909 ± 0.26
V41: Y -0.162 ± 0.12; Q 0.055 ± 0.081; D -0.01 ± 0.17; K 0.052 ± 0.12; R 0.047 ± 0.046; S -0.026 ± 0.069; G 0.105 ± 0.041; F -0.001 ± 0.092; M 0.041 ± 0.095; A 0.063 ± 0.059; W -0.132 ± 0.058; C -0.112 ± 0.1; P -0.051 ± 0.1; L 0.023 ± 0.053; T 0.096 ± 0.089; I -0.101 ± 0.14
Y50: D -0.823 ± 0.077; N -0.567 ± 0.087; W -0.036 ± 0.041; V -1.02 ± 0.056; L -0.351 ± 0.03; K -0.884 ± 0.09; E -0.559 ± 0.03; S -0.705 ± 0.041; Q -0.356 ± 0.047; C -0.047 ± 0.047; T -0.949 ± 0.081; F -0.002 ± 0.045; G -0.421 ± 0.028; I -0.851 ± 0.12; M -0.072 ± 0.045; P -1.14 ± 0.11; H -0.102 ± 0.051; A -0.576 ± 0.03; R -0.685 ± 0.033
G40: L -0.739 ± 0.1; T -0.251 ± 0.075; C -0.158 ± 0.086; P -0.028 ± 0.086; Y -0.137 ± 0.15; S -0.051 ± 0.061; K -0.337 ± 0.1; A -0.051 ± 0.039; I -0.759 ± 0.28; F -0.261 ± 0.13; W -0.312 ± 0.068; V -1.06 ± 0.16; H -0.252 ± 0.14; N -0.14 ± 0.14; D -0.012 ± 0.1; M -0.464 ± 0.092; R -0.322 ± 0.049
P48: D -0.038 ± 0.12; Y -0.23 ± 0.12; Q -0.011 ± 0.097; C -0.129 ± 0.13; W -0.712 ± 0.12; N -0.096 ± 0.17; T 0.002 ± 0.081; H -0.236 ± 0.14; I -0.23 ± 0.092; L -0.32 ± 0.056; V -0.104 ± 0.049; G -0.147 ± 0.058; S -0.1 ± 0.066; R -0.067 ± 0.045; F -0.388 ± 0.17; K 0.006 ± 0.089; E -0.068 ± 0.089; A -0.027 ± 0.062; M -0.193 ± 0.099
R51: M 0.049 ± 0.077; A -0.004 ± 0.057; I -0.04 ± 0.083; H 0.013 ± 0.1; G 0.062 ± 0.035; K 0.008 ± 0.082; E 0.037 ± 0.072; Q -0.035 ± 0.066; V -0.026 ± 0.048; W -0.138 ± 0.065; P -1.03 ± 0.17; L -0.019 ± 0.044; N -0.264 ± 0.19; Y -0.166 ± 0.12; D 0 ± 0.11; S 0.044 ± 0.056; T 0.1 ± 0.088
L56: E 0.115 ± 0.2; D 0.309 ± 0.29; C -0.136 ± 0.42
Y55: F 0.117 ± 0.16; K -0.352 ± 0.29; R 0.055 ± 0.18; H 0.218 ± 0.32; D -0.531 ± 0.24; S -0.437 ± 0.18; A -0.152 ± 0.25; G -0.529 ± 0.25; E -0.425 ± 0.37; V -0.128 ± 0.23; W 0.014 ± 0.18; M -0.231 ± 0.25; L -0.051 ± 0.21
V37: C 0.075 ± 0.058; T 0.004 ± 0.043; Y -0.769 ± 0.21; I -0.142 ± 0.12; D -0.166 ± 0.066; G -0.075 ± 0.04; N 0.087 ± 0.11; L 0.023 ± 0.039; K 0.027 ± 0.067; A 0.081 ± 0.039; R 0.042 ± 0.037; Q -0.105 ± 0.057; M 0.049 ± 0.057
L38: E -0.004 ± 0.053; P 0.1 ± 0.06; H 0.043 ± 0.12; F -0.017 ± 0.071; R 0.004 ± 0.037; S -0.014 ± 0.043; W -0.024 ± 0.049; Q -0.072 ± 0.054; K -0.016 ± 0.075; I -0.15 ± 0.11; T 0.012 ± 0.058; M -0.046 ± 0.095; Y -0.079 ± 0.096; C -0.067 ± 0.065; A 0.032 ± 0.044; G 0.02 ± 0.03
N49: W 0.004 ± 0.033; P -0.591 ± 0.069; R -0.07 ± 0.027; G 0.011 ± 0.023; A -0.018 ± 0.029; L -0.063 ± 0.028; C -0.078 ± 0.049; V -0.198 ± 0.028; H -0.004 ± 0.057; K -0.04 ± 0.045; T -0.167 ± 0.047; Y -0.044 ± 0.063; D 0.004 ± 0.047; E 0.021 ± 0.033; F -0.009 ± 0.052; M -0.001 ± 0.04

From the Human Domainome abundance scans (Beltran et al. 2025)
